In PMC3341331 (PLoS Neglected Tropical Diseases, 2012):

Molecular target: recombinant E protein domain III of DENV-2, flag and hexahistidine tagged (Dengue virus type 2, strain 16681 …, UniProt P29990)
Test: SPR
Conditions: both partners purified

B1: humanized DB32-6 monoclonal antibody (antibody, V domains shown)
VH: EVQLQQSGAELVKPGASVNLSCTASGFNIKDTYIHWVKQRPEQGLEWIGRIDPENGNAKYDPNFQAKATIAADTSSNTAYLQLSSLTSEDTAVYYCVRTGSFWYFDVWGQGTLVTVSS
VL: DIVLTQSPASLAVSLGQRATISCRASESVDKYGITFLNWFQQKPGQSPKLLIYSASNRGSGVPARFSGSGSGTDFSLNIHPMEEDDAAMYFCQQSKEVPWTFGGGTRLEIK
Kd: 0.18 nM
